This data set is described as follows: yeast display, Sf9 membrane polyspecificity reagent, FACS + sequencing; frameworks hold sequencing errors. Put shortly:
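Using colony PCR, genes from sorted yeast display clones were amplified, then sequenced on MiSeq at 2 × 250 and filtered by CDR length. The clones had been stained with 10% biotinylated, detergent-solubilized Sf9 membrane reagent for 1 hour at 4 °C and sorted by FACS into low and high (top ~1%) gates on anti-HA and streptavidin fluorescence. Polyreactivity labels come from the gate of origin.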
Regarding “QVQLVESGGGLVQAGGSLRLSCAASGRTFSVNDMGWYRQAPWKEREFVAAISFSGGSTYYADSVKGRFTISRDNAKNTVYLLMNSLKPEDSAVYYSAAEAYPSWFYVITGFGIYDYWGQGTQVTGSS”, the “polyreactivity (PSR sort gate)” value is listed as “high polyreactivity”.
The same measure for “QVQLVESGGGLVQAGGSLRLSCAASGRTFSVYAKGWYRQAPGKERELVAGITSGGSTNYADSVKGRFTISRDNAKNTVYLQMNSLKPEDTAVYYCAAENVYAGFGFVSIGDYWGHGTQVTVSS”: “low polyreactivity”; for “QVQLVESGGGLVQAGGSLRLSCAASGRTFSVYTMGWYREAPGQERELVAAISSTGRTNYADSVKGRFTISRDNAKNTVYLQMNSQKPEATAVYDCNAGVRNSYTRHALVTAYYLYYYWRQGTQVTVSS”: “high polyreactivity”.
To “QVQLVESGGGLVQAGGSLRLSCAASGRTFSYAMGWYRQAPGKERELVAAISSGARTYYADSVKGRFTISRDNAKNTVYLQMNSLIPEDTAVYYCNARSRYEGLNYWGHGTQVTVSS” belongs “high polyreactivity”.
Turning to “QVQLVESGGGLVQAGGSLRLSCAASGRTFSYAMGWYRQAPGKERELVAGISWSGGRTYYADSVKGRFTISRDNAKNTVYLQMNSLKPEDTAVYYCAAGGRARTYYYWGQGTQVTVSS”, the “polyreactivity (PSR sort gate)” value is “high polyreactivity”.
To “QVQLVESGGGLVQAGGSLRLSCAASGRTFSYNAMGWYRQAPGKERELVAAINWRAGRTYYADSVKGRFTISRDNAKNTVYLQMNSLKPEDTAVYYCNARSGRGQAYGYWGQGTQVTVSS” belongs “high polyreactivity”; to “QVQLVESGGGLVQAGGSLRLSCAASGRTFSYNAMGWYRQAPGKERELVAAITSSGGGTSYADSVKGRFTISRDNAKNTVYLQMNSLKPEDTAVYYCNRVLPHPDGYGVGARGYWGQGTQVTVSS”, “high polyreactivity”; to “QVQLVESGGGLVQAGGSLRLSCAASGRTFSYNTMGWYRQAPGTERELVARITWGGGSTNYADSVKGRFTISRDNAKNTFYLQMNSLKPEDTAVYYCAAGPSVPYGPQKVDYWGQGTQVTVSS”, “low polyreactivity”.
For “QVQLVESGGGLVQAGGSLRLSCAASGRTFSYYTMGWYRQAPGKERELVAAITSSGGSTYYADSVKGRFTISRDNAKNTVYLQMNSLKPEDTAVYYCAVLNYAGKYYYWGQGTQVTVSS”, the “polyreactivity (PSR sort gate)” value is listed as “high polyreactivity”.
For “QVQLVESGGGLVQAGGSLRLSCAASGRTFTAYAMGWYRQAPGKERELVASISSGVTYADSVKGRFTISRDNAKNTVYLQMTSLKPEDTAVYYCAARLWYVQGYVPYVHHRFDYWGQGTQVTVSS”, the “polyreactivity (PSR sort gate)” value is listed as “low polyreactivity”.
To “QVQLVESGGGLVQAGGSLRLSCAASGRTFTCYAMGWYRQAPGKERELVATAITSGGSTNYADSVKGRFTISRDNAKNTVYLQMISLKPEDTAVYYCAAVPTEFGNRLEYDYWGQGTQVTVSS” belongs “low polyreactivity”.
Take “QVQLVESGGGLVQAGGSLRLSCAASGRTFTFYTMGWDRQAPGKERELVARITGGGSTYYADSVKGRFTISRDNAKNTVYLQMNSLKPEDTAVYYCAAASGTKRLYRGTRGDYWGQGTQVTVSS”: the “polyreactivity (PSR sort gate)” value is listed as “low polyreactivity”.
The same measure for “QVQLVESGGGLVQAGGSLRLSCAASGRTFTGNAMGCYRQAPGKERELVAAISTSGTRTSYADSVKGRFTISRDNAKNTVYLQMNSLKPEDTAVYYCAALRKSLYRTYTYDYWGQGTQVTVSS”: “high polyreactivity”; for “QVQLVESGGGLVQAGGSLRLSCAASGRTFTGNAMGWYRQATGKERELVAAINSGGGRTFYADSVKGRFTISRDNAKNTVYLQMTSLKPEDTAVYYCNAVKYRSYYWGQGTQVTVSS”: “high polyreactivity”.
Take “QVQLVESGGGLVQAGGSLRLSCAASGRTFTGYAMGWYRKAPGKERELVAAIRRTASTYYADSVKGRFTISRDNAKNTVYLQMNSLKPEDTAVYYCAVRAAHRGTYYYWGQGTQVTVSS”: the “polyreactivity (PSR sort gate)” value is “high polyreactivity”.
The same measure for “QVQLVESGGGLVQAGGSLRLSCAASGRTFTGYAMGWYRQAPGKERELVAAISRRGASTYYADSVKGRFTISRDNAKNTVYLQMNSLKPEDTAVYYCAAYLYGLWSVGRDYWGQGTQVTVSS”: “high polyreactivity”.

The values above are taken from the nanobody polyreactivity screen of Harvey et al. (2022).
